Laboratory results as given in article PMC9411592 (2022).
Where a chain is given by its changes, count along the chain named. Like-named read-outs stand apart in the source and are kept apart here.

B1: integrin αVβ8 headpiece (αV residues 1-594, β8 residues 1-456) (complex)
chain 1: FNLDVDSPAEYSGPEGSYFGFAVDFFVPSASSRMFLLVGAPKANTTQPGIVEGGQVLKCDWSSTRRCQPIEFDATGNRDYAKDDPLEFKSHQWFGASVRSKQDKILACAPLYHWRTEMKQEREPVGTCFLQDGTKTVEYAPCRSQDIDADGQGFCQGGFSIDFTKADRVLLGGPGSFYWQGQLISDQVAEIVSKYDPNVYSIKYNNQLATRTAQAIFDDSYLGYSVAVGDFNGDGIDDFVSGVPRAARTLGMVYIYDGKNMSSLYNFTGEQMAAYFGFSVAATDINGDDYADVFIGAPLFMDRGSDGKLQEVGQVSVSLQRASGDFQTTKLNGFEVFARFGSAIAPLGDLDQDGFNDIAIAAPYGGEDKKGIVYIFNGRSTGLNAVPSQILEGQWAARSGCPPSFGYSMKGATDIDKNGYPDLIVGAFGVDRAILYRARPVITVNAGLEVYPSILNQDNKTCSLPGTALKVSCFNVRFCLKADGKGVLPRKLNFQVELLLDKLKQKGAIRRALFLYSRSPSHSKNMTISRGGLMQCEELIAYLRDESEFRDKLTPITIFMEYRLDYRTAADTTGLQPILNQFTPANISRQAHILLD
chain 2: EDNRCASSNAASCARCLALGPECGWCVQEDFISGGSRSERCDIVSNLISKGCSVDSIEYPSVHVIIPTENEINTQVTPGEVSIQLRPGAEANFMLKVHPLKKYPVDLYYLVDVSASMHNNIEKLNSVGNDLSRKMAFFSRDFRLGFGSYVDKTVSPYISIHPERIHNQCSDYNLDCMPPHGYIHVLSLTENITEFEKAVHRQKISGNIDTPEGGFDAMLQAAVCESHIGWRKEAKRLLLVMTDQTSHLALDSKLAGIVCPNDGNCHLKNNVYVKSTTMEHPSLGQLSEKLIDNNINVIFAVQGKQFHWYKDLLPLLPGTIAGEIESKAANLNNLVVEAYQKLISEVKVQVENQVQGIYFNITAICPDGSRKPGMEGCRNVTSNDEVLFNVTVTMKKCDVTGGKNYAIIKPIGFNETAKIHIHRNCSCQCEDNRGPKGKCVDETFLDSKCFQCDENK
B2: integrin αVβ6 headpiece (αV residues 1-594, β6 residues 1-474) (complex)
chain 1: B1 chain 1
chain 2: HVQGGCALGGAETCEDCLLIGPQCAWCAQENFTHPSGVGERCDTPANLLAKGCQLNFIENPVSQVEILKNKPLSVGRQKNSSDIVQIAPQSLILKLRPGGAQTLQVHVRQTEDYPVDLYYLMDLSASMDDDLNTIKELGSRLSKEMSKLTSNFRLGFGSFVEKPVSPFVKTTPEEIANPCSSIPYFCLPTFGFKHILPLTNDAERFNEIVKNQKISANIDTPEGGFDAIMQAAVCKEKIGWRNDSLHLLVFVSDADSHFGMDSKLAGIVCPNDGLCHLDSKNEYSMSTVLEYPTIGQLIDKLVQNNVLLIFAVTQEQVHLYENYAKLIPGATVGLLQKDSGNILQLIISAYEELRSEVELEVLGDTEGLNLSFTAICNNGTLFQHQKKCSHMKVGDTASFSVTVNIPHCERRSRHIIIKPVGLGDALELLVSPECNCDCQKEVEVNSSKCHHGNGSFQCGVCACHPGHMGPRCE
B3: integrin αVβ8-6DLL headpiece (the disulfide-linked loop of β8 substituted by that of β6) (complex)
chain 1: FNLDVDSPAEYSGPEGSYFGFAVDFFVPSASSRMFLLVGAPKANTTQPGIVEGGQVLKCDWSSTRRCQPIEFDATGNRDYAKDDPLEFKSHQWFGASVRSKQDKILACAPLYHWRTEMKQEREPVGTCFLQDGTKTVEYAPCRSQDIDADGQGFCQGGFSIDFTKADRVLLGGPGSFYWQGQLISDQVAEIVSKYDPNVYSIKYNNQLATRTAQAIFDDSYLGYSVAVGDFNGDGIDDFVSGVPRAARTLGMVYIYDGKNMSSLYNFTGEQMAAYFGFSVAATDINGDDYADVFIGAPLFMDRGSDGKLQEVGQVSVSLQRASGDFQTTKLNGFEVFARFGSAIAPLGDLDQDGFNDIAIAAPYGGEDKKGIVYIFNGRSTGLNAVPSQILEGQWAARSGCPPSFGYSMKGATDIDKNGYPDLIVGAFGVDRAILYRARPVITVNAGLEVYPSILNQDNKTCSLPGTALKVSCFNVRFCLKADGKGVLPRKLNFQVELLLDKLKQKGAIRRALFLYSRSPSHSKNMTISRGGLMQCEELIAYLRDESEFRDKLTPITIFMEYRLDYRTAADTTGLQPILNQFTPANISRQAHILL
chain 2: B1 chain 2 with D171S, Y172I, N173P, L174Y, D175F
B4: αVβ8-IgG1 Fc (heterotetramer of αVβ8 linked by the IgG1 Fc fragment on the C-terminus of β8) (Fc fusion)
chain 1: B3 chain 1
chain 2: B1 chain 2
B5: integrin αVβ6-8DLL headpiece (the disulfide-linked loop of β6 substituted by that of β8) (complex)
chain 1: B1 chain 1
chain 2: B2 chain 2 with S182D, I183Y, P184N, Y185L, F186D

Columns and labels:
[1] = target: L-TGF-β1 C4S/R249A (the 'WT' of the SPR assay) (human); experiment: SPR
[2] = target: L-TGF-β1 C4S/R249A (the 'WT' of the SPR assay) (human); experiment: SPR; remark: listed apart in the source

L-TGF-β1 C4S/R249A (the 'WT' of the SPR assay) (human), sequence (chain, as listed by the source R249A): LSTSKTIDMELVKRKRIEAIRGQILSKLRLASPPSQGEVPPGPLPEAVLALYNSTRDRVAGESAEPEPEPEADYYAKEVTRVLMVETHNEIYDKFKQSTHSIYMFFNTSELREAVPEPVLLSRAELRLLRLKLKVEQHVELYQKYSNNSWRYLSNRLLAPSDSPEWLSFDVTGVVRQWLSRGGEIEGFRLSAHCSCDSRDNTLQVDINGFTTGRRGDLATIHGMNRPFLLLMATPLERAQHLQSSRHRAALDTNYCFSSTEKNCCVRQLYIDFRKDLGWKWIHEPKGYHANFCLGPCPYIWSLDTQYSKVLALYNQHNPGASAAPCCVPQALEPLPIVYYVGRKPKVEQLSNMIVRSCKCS

Row | Binder | koff [1] [s⁻¹] | koff [2] [s⁻¹]
1 | B1 | 0.00109 | 
2 | B2 |  | 0.000107
3 | B3 |  | 0.000142
4 | B4 | 7.6e-05 | 
5 | B5 |  | 0.00121
